We go through 2 substances from article PMC3573756.

The target in experiment [1] is cardiac ryanodine receptor (RyR2) (rat (endogenous in rat ventricular myocytes)) (UniProt B0LPN4). Briefly: confocal fluorescence wash-in and wash-out kinetics.
For experiment [2] the target is unchanged. Kind of experiment: other fluorescence titration.
Experiment [3] has the same target. Briefly: FRET or BRET. (In general: Bioluminescence resonance energy transfer reports proximity on the nanometre scale.)
Experiment [4] shares this target. Kind of experiment: FRET or BRET. This is another data set of the same source.

Sequence of UniProt B0LPN4 (B0LPN4 whole entry): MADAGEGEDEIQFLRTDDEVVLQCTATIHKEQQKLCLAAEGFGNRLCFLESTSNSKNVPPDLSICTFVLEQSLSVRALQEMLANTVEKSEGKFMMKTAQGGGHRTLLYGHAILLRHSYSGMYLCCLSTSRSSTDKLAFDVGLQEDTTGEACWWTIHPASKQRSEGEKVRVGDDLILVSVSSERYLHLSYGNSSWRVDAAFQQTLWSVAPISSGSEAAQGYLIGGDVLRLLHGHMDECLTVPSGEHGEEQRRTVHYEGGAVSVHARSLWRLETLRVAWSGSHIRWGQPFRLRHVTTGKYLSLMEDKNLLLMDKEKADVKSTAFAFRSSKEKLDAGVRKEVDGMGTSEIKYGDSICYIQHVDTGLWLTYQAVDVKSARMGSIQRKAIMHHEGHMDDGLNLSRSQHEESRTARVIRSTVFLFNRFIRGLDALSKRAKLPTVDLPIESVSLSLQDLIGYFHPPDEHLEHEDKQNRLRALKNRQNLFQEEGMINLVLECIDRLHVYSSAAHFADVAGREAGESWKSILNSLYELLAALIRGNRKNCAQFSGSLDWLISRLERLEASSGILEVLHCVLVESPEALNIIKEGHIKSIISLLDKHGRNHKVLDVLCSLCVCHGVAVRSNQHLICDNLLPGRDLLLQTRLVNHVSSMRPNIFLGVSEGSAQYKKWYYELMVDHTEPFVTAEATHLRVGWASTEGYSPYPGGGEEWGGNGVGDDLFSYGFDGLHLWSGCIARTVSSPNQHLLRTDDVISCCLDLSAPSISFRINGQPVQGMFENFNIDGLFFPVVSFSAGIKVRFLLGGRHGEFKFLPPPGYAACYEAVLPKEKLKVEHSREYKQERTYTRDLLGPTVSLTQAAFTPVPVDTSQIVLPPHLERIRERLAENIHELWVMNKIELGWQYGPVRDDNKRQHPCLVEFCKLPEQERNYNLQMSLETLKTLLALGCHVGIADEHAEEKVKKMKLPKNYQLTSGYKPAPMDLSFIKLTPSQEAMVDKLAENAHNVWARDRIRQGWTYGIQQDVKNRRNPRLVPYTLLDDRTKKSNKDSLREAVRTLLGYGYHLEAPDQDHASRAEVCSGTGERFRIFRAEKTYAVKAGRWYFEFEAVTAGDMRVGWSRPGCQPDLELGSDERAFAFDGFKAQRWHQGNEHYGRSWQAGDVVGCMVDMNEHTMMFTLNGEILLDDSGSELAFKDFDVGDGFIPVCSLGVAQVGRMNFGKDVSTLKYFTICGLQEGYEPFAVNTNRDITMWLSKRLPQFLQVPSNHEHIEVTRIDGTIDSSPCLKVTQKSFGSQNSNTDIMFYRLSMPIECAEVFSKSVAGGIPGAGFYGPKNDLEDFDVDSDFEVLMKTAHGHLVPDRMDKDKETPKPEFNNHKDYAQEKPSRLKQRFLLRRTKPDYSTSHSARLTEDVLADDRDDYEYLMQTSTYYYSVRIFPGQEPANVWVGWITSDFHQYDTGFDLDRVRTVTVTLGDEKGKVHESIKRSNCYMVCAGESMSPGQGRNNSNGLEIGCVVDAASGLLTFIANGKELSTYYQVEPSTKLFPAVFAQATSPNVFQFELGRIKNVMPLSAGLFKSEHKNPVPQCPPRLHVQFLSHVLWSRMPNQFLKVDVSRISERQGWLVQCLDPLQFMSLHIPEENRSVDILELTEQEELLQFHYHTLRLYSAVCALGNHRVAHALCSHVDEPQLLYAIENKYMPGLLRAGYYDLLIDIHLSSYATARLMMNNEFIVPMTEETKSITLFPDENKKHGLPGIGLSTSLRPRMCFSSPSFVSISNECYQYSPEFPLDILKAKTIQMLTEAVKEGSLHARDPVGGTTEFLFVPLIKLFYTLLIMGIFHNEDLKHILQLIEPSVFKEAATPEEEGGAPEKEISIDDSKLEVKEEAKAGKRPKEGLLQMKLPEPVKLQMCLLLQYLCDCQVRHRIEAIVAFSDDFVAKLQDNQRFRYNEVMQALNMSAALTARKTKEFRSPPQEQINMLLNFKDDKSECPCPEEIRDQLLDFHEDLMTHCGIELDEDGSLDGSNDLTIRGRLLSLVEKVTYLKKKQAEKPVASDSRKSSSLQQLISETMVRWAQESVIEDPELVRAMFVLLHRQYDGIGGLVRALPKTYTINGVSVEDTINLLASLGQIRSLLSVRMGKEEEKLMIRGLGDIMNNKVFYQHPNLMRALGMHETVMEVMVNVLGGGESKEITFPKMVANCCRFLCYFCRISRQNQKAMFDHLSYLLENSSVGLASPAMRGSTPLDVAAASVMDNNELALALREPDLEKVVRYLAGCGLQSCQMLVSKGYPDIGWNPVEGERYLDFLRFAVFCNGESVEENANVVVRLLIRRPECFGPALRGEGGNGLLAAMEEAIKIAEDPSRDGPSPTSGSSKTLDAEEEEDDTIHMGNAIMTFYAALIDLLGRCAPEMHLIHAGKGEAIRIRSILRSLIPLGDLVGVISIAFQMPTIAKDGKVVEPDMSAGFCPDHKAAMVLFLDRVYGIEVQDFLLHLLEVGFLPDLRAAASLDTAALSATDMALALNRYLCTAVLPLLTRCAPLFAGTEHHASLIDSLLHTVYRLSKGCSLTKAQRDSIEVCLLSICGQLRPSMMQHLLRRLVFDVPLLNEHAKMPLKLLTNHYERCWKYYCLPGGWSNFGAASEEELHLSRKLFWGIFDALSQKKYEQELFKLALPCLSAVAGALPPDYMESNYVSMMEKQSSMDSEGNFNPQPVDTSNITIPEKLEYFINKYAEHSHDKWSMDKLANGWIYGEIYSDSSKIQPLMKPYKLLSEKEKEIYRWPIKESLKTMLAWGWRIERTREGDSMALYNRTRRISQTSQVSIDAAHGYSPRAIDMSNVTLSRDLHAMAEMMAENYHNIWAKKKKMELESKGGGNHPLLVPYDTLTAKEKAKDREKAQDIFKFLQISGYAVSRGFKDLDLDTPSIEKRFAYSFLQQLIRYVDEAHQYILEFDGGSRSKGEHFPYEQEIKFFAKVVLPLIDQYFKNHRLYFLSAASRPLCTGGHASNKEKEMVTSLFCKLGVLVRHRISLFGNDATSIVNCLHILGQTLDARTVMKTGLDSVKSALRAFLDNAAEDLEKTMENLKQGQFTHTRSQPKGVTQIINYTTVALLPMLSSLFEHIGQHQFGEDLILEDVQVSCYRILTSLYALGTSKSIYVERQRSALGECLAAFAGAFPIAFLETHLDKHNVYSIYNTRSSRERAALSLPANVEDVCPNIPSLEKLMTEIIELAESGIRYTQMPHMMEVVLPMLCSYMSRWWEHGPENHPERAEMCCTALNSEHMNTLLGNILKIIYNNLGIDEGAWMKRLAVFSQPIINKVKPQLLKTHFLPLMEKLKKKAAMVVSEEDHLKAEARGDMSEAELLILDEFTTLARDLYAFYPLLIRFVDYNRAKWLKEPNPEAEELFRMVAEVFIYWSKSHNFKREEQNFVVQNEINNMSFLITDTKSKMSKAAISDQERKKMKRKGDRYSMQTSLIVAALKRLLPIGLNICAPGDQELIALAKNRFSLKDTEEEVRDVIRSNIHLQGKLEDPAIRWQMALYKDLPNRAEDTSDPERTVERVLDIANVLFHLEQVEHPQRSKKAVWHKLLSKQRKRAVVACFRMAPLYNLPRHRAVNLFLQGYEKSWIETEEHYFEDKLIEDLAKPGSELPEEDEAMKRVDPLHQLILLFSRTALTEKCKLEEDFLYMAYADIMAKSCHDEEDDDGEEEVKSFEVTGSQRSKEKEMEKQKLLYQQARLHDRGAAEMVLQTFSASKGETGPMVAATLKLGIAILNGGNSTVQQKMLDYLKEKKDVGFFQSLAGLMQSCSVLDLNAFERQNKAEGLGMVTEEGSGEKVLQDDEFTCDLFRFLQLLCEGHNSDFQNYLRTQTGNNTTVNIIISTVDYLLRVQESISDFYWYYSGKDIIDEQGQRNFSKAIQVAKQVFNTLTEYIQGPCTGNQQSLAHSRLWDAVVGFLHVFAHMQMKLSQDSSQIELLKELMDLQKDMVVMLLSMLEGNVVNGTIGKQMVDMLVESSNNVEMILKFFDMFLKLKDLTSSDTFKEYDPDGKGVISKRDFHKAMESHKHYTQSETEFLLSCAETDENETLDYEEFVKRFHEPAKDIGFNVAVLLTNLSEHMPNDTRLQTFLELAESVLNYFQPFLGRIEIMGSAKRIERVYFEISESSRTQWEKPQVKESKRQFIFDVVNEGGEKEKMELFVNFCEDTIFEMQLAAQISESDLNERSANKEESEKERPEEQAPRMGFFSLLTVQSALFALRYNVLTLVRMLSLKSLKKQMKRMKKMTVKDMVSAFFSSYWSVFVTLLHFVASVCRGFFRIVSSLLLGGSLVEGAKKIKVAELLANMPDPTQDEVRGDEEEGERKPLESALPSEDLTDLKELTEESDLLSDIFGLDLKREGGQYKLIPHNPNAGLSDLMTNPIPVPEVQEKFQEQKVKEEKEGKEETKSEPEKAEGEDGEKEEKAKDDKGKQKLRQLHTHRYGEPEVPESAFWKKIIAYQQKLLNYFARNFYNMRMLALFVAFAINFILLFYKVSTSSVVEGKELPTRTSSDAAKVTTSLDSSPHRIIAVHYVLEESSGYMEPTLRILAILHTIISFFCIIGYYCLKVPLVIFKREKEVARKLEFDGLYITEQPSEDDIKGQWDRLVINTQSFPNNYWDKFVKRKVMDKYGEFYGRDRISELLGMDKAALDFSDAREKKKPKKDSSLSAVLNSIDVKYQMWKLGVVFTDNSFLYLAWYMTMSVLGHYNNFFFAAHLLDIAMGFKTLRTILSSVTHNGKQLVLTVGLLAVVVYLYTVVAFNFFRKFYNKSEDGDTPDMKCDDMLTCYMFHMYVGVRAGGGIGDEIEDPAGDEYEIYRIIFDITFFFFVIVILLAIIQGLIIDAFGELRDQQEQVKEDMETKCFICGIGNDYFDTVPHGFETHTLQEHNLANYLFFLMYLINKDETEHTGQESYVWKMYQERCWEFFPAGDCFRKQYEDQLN

Turning to “DPc10 labeled with 5-carboxyfluorescein at its N-terminus (F-DPc10) (peptide)”, in experiment [1], the fold faster association after pre-saturation with NF-DPc10 against control was 2 fold and the percent faster τ (wash-in) with ryanodine plus caffeine against control was 21%. Besides, in experiment [2], the Kd worked out at 480 nM and the stoichiometry N (DPc10 per RyR2 monomer) was 1.
Take “DPc10 labeled with HiLyte Fluor 647 on the N-terminus (HF647-DPc10) (peptide)”: the Kd in experiment [3] stood at 450 nM; in experiment [4] it was 610 nM.

For orientation: Kd means the concentration at which binding is half-saturated. Low readings indicate higher affinity, high ones lower affinity.
